This note sets out measurements from publication PMC8951541, “Sunflower WRINKLED1 Plays a Key Role in Transcriptional Regulation of Oil Biosynthesis”.

Data set [1] deals with T1, His-HaWRI1(52-234), AP2 domain (Helianthus annuus, UniProt A0A251SM13 52-234). As to the kind of experiment: competition; 10x to 60x unlabeled probe against biotin-labeled N1 (EMSA); EMSA: 15 mM HEPES-KOH pH 7.5, 7.5 mM KCl, 0.5 mM EDTA, 5% glycerol, 2 mM DTT, 1 ug/uL BSA, 0.05 ug/uL poly(dI-dC), 20 uL, on ice 30 min; 5% native PAGE. Particulars: protein: recombinant; tags: 6xHis (pET41a-6xHis vector); label: none. (In general: In EMSA bound probe runs differently from free probe, usually more slowly.)

Data set [2] addresses T1, His-HaWRI1(52-234), AP2 domain. As to the kind of experiment: EMSA; poly(dI-dC) 0.05 ug/uL; 280 ng protein; 2 fmol/uL probe; EMSA: 15 mM HEPES-KOH pH 7.5, 7.5 mM KCl, 0.5 mM EDTA, 5% glycerol, 2 mM DTT, 1 ug/uL BSA, 0.05 ug/uL poly(dI-dC), 20 uL, on ice 30 min; 5% native PAGE. The conditions noted are these: protein: recombinant; tags: 6xHis (pET41a-6xHis vector); label: 5' biotin.

T1 sequence (A0A251SM13 entry or part of it): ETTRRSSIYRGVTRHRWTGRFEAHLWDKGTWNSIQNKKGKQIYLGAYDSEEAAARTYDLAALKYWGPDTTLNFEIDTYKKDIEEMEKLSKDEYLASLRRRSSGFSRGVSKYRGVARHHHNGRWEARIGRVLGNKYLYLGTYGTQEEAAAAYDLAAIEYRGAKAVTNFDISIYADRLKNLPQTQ

B1: proBCCP2 AW-box cold probe (dsDNA)
DNA 1: TACTTCCTCGGTTTCATCGTCCAC
DNA 2: GTGGACGATGAAACCGAGGAAGTA
For the molecule B1, the binding result in data set [1] is recorded as “binds”.

B2: proBCCP2 AW-box probe (dsDNA)
DNA 1: TACTTCCTCGGTTTCATCGTCCAC
DNA 2: GTGGACGATGAAACCGAGGAAGTA
Turning to B2, the binding result in data set [2] was “binds”.
